Tests used:
Format in all cases: biochemical
deglycosylated rituximab [1] = test: Transglycosylation activity assay of Endo-S and D233 mutants, LC-ESI-MS
Procedure: (§1) The hydrolytic activity of the mutants generated was evaluated using rituximab as the substrate, and the transglycosylation activity was evaluated using the sugar oxazoline and the deglycosylated rituximab as the donor and acceptor substrates, respectively (Scheme 1).
(§2) The LC-MS characterization of different antibody glycoforms was conducted on an Exactive Plus Orbitrap instrument (Thermo Scientific). The intact antibody sample was analyzed with a Waters XBridge™ BEH300 C4 column (3.5 μm, 2.1×50 mm). The program includes a 9 min linear gradient of 5-90% MeCN containing 0.1% formic acid at a flow rate of 0.4 mL/min. The original mass data were processed through deconvolution and integration through MagTran Software (Amgen).
(§3) Peptide-N-Glycosidase F (PNGase F) treated rituximab was used as the internal standard due to its similarities to the deglycosylated and transferred product in terms of their molecular structures and ionization efficiencies. After PNGase F treatment, a mutation will be introduced into the amino acid sequence of rituximab so the product antibody will not interfere with the reaction via re-glycosylation^35. A standard product S2G2F-rituximab was synthesized following the previously reported procedure^29. […] Serial dilutions containing a gradient of S2G2F-rituximab (0, 0.25, 0.5, 0.75, 1.0, 1.25 and 1.5 μM) were mixed with a stock solution containing 0.67 μM internal standard. These mixed sample solutions were quantified by selected ion monitoring (SIM) to calculate the single-point normalization factor^31. The factor could then be used to calculate the relative amount of the final product N-glycoform for each reaction in the following experiments.
(§4) The hydrolytic activity of each Endo-S mutants and the wild-type (0.01 mg/mL) was assayed in PBS (pH 7.4, 10 μl) at 30° C. with synthetic biantennary sialo-complex-type rituximab (1.0 mg/mL, 6.9 μM) as the starting material. Each reaction was terminated at 5 min and an aliquot was taken from the reaction mixture and dissolved in 0.1% formic acid. The relative quantity of the hydrolysis product was calculated through deconvolution and integration of the selected MS peaks. The experimental details of product quantification using LC-MS are illustrated below. The transglycosylation activity of Endo-S was measured in a similar fashion: deglycosylated Rituximab (10.0 mg/mL, 69 μM) was incubated with SCT-Oxa (1.38 mM, 20 eq) under catalysis of Endo-S enzymes (0.01 mg/mL) under the same condition as hydrolysis. The transglycosylation product SCT-Rituximab was analyzed as mentioned above. Both functional assays were repeated twice for each mutant and the wild-type, and the average activity was recorded

rituximab = test: Hydrolysis activity assay of Endo-S and D233 mutants, LC-ESI-MS; conditions: rituximab 1.0 mg/mL as substrate, enzyme 0.01 mg/mL, PBS pH 7.4, 30° C., 5 min, duplicate
Procedure: as §1, §2, §3, §4

deglycosylated rituximab [2] = test: Kinetic measurements (KM, Vmax) of Endo-S/Endo-S2 mutants for deglycosylated rituximab
Description: as §3
(§5) Measurements of KM and Vmax for SCT-oxa. Serial dilutions with a total volume of 10 μL were prepared with a gradient of SCT-oxa concentrations and a constant deglycosylated antibody concentration mixed in PBS, pH 7.4. Each reaction was initiated by adding 1μμL, of Endo-S/S2 mutants with a concentration of 0.1 mg/M1 and the reaction was conducted at 30° C. The concentrations of SCT-oxa were within a range from 6.25 μM to 400 μM. For each reaction, three aliquots were taken at t=1, 2 and 3 min and immediately quenched in 100 μL 0.1% formic acid. The quenched reaction samples were then characterized by ESI-MS, and the concentration of product in each mixture was calculated using the normalization factor, as shown above. A linear progression curve was confirmed for each reaction by sampling at multiple early time points and plotting them in the same graph, which emphasized that the V0 measured indeed represents the initial rate of each reaction. The KM and Vmax were measured by fitting the initial velocity against the SCT-oxa concentration using the GraphPad Prism7 program. The experiments were conducts in triplicate to determine the error in these measurements.
The KM and Vmax values of both Endo-S and Endo-S2 mutants for the deglycosylated antibody substrate were measured in a similar fashion as to those for SCT-Oxa. In the serial reactions, the concentrations of antibody range from 0.313 μM to 20 μM, whereas the SCT-Oxa concentration was fixed at 400 μM. A similar control reaction was also performed for each concentration to monitor the non-enzymatic side reactions.

[3] = Kinetic measurements (KM, Vmax) of Endo-S/Endo-S2 mutants for SCT-Oxa; conditions: for Km / kcat: Endo-S2 mutants, donor substrate SCT-Oxa, PBS pH 7.4, 30° C.
Procedure: Using a sialylated glycan oxazoline (SCT-Oxa) as the donor and the deglycosylated rituximab as the acceptor substrate, we measured the kinetic parameters of the enzyme catalyzed glycosylation were measured. A mass spectrometry-based approach with an internal standard was used to estimate the product formation.^31-33.
as §3
as §5, with “A linear progression curve was confirmed for each reaction by sampling at multiple early time points and plotting them in the same graph, which emphasized that the V0 measured indeed represents the initial rate of each reaction.” left out

[4] = Endo-S2 mutants, acceptor substrate deglycosylated rituximab, SCT-Oxa fixed at 400 μM
[5] = Endo-S2, glycan oxazoline substrate

Row | Molecule | Transglycosylation Activity (deglycosylated rituximab [1]; deglycosylated rituximab 10.0 mg/mL, SCT-Oxa 1.38 mM (20 eq), enzyme 0.01 mg/mL, PBS pH 7.4, 30° C., duplicate) | Transglycosylation/Hydrolysis Ratio T/H (deglycosylated rituximab [1]; ratio of transglycosylation to hydrolysis activity, Table 1) | Specific Hydrolysis Activity (rituximab) | substrate affinity for the deglycosylated antibody (in words) (deglycosylated rituximab [2]; Asp-to-Met versus Asp-to-Ala mutant) | Km (deglycosylated rituximab [2]; [4]) | kcat (deglycosylated rituximab [2]; [4]) | decrease in substrate affinity (KM) versus D184A [3, 5] | increase in catalytic turnover numbers (kcat) over D184A [3, 5] | increase in kcat/KM over D184A ([3]; Endo-S2, sugar oxazoline substrate) | Km [3] | kcat [3] | catalytic turnover number compared with Endo-S D233M (in words) ([3]; for both the sugar oxazoline and the antibody substrates) | KM value relative to Endo-S2 D184M (deglycosylated rituximab [2]; deglycosylated rituximab)
1 | Endo-S WT: wild-type Endo-S, endo-β-N-acetylglucosaminidase of Streptococcus pyogenes (SEQ ID NO: 1) (protein, Streptococcus pyogenes) MDKHLLVKRTLGCVCAATLMGAALATHHDSLNTVKAEEKTVQVQKGLPSIDSLHYLSENSKKEFKEELSKAGQESQKVKEILAKAQQADKQAQELAKMKIPEKIPMKPLHGPLYGGYFRTWHDKTSDPTEKDKVNSMGELPKEVDLAFIFHDWTKDYSLFWKELATKHVPKLNKQGTRVIRTIPWRFLAGGDNSGIAEDTSKYPNTPEGNKALAKAIVDEYVYKYNLDGLDVDVEHDSIPKVDKKEDTAGVERSIQVFEEIGKLIGPKGVDKSRLFIMDSTYMADKNPLIERGAPYINLLLVQVYGSQGEKGGWEPVSNRPEKTMEERWQGYSKYIRPEQYMIGFSFYEENAQEGNLWYDINSRKDEDKANGINTDITGTRAERYARWQPKTGGVKGGIFSYAIDRDGVAHQPKKYAKQKEFKDATDNIFHSDYSVSKALKTVMLKDKSYDLIDEKDFPDKALREAVMAQVGTRKGDLERFNGTLRLDNPAIQSLEGLNKFKKLAQLDLIGLSRITKLDRSVLPANMKPGKDTLETVLETYKKDNKEEPATIPPVSLKVSGLTGLKELDLSGFDRETLAGLDAATLTSLEKVDISGNKLDLAPGTENRQIFDTMLSTISNHVGSNEQTVKFDKQKPTGHYPDTYGKTSLRLPVANEKVDLQSQLLFGTVTNQGTLINSEADYKAYQNHKIAGRSFVDSNYHYNNFKVSYENYTVKVTDSTLGTTTDKTLATDKEETYKVDFFSPADKTKAVHTAKVIVGDEKTMMVNLAEGATVIGGSADPVNARKVFDGQLGSETDNISLGWDSKQSIIFKLKEDGLIKHWRFFNDSARNPETTNKPIQEASLQIFNIKDYNLDNLLENPNKFDDEKYWITVDTYSAQGERATAFSNTLNNITSKYWRVVFDTKGDRYSSPVVPELQILGYPLPNADTIMKTVTTAKELSQQKDKFSQKMLDELKIKEMALETSLNSKIFDVTAINANAGVLKDCIEKRQLLKK | 25.89 100*(μmol/min/mg) | 9.35 | 2.77 100*(μmol/min/mg) | – | – | – | – | – | – | – | – | – | –
2 | Endo-S2 D184M (protein) EEKTVQTGKTDQQVGAKLVQEIREGKRGPLYAGYFRTWHDRASTGIDGKQQHPENTMAEVPKEVDILFVFHDHTASDSPFWSELKDSYVHKLHQQGTALVQTIGVNELNGRTGLSKDYPDTPEGNKALAAAIVKAFVTDRGVDGLDIMIEHEFTNKRTPEEDARALNVFKEIAQLIGKNGSDKSKLLIMDTTLSVENNPIFKGIAEDLDYLLRQYYGSQGGEAEVDTINSDWNQYQNYIDASQFMIGFSFFEESASKGNLWFDVNEYDPNNPEKGKDIEGTRAKKYAEWQPSTGGLKAGIFSYAIDRDGVAHVPSTYKNRTSTNLQRHEVDNISHTDYTVSRKLKTLMTEDKRYDVIDQKDIPDPALREQIIQQVGQYKGDLERYNKTLVLTGDKIQNLKGLEKLSKLQKLELRQLSNVKEITPELLPESMKKDAELVMVGMTGLEKLNLSGLNRQTLDGIDVNSITHLTSFDISHNSLDLSEKSEDRKLLMTLMEQVSNHQKITVKNTAFENQKPKGYYPQTYDTKEGHYDVDNAEHDILTDFVFGTVTKRNTFIGDEEAFAIYKEGAVDGRQYVSKDYTYEAFRKDYKGYKVHLTASNLGETVTSKVTATTDETYLVDVSDGEKVVHHMKLNIGSGAIMMENLAKGAKVIGTSGDFEQAKKIFDGEKSDRFFTWGQTNWIAFDLGEINLAKEWRLFNAETNTEIKTDSSLNVAKGRLQILKDTTIDLEKMDIKNRKEYLSNDENWTDVAQMDDAKAIFNSKLSNVLSRYWRFCVDGGASSYYPQYTELQILGQRLSNDVANTLKD | – | – | – | significantly higher substrate affinity for the antibody than the Endo-S2 D184A mutant | 32.6 ± 6.71 µM | 0.4973 ± 0.155 s⁻¹ | less than 2 fold | more than 15 fold | more than 10 fold | 229 ± 34.8 µM | 2.7968 ± 0.3417 s⁻¹ | significantly higher catalytic turnover number than Endo-S D233M | –
3 | Endo-S2 D184A (protein) EEKTVQTGKTDQQVGAKLVQEIREGKRGPLYAGYFRTWHDRASTGIDGKQQHPENTMAEVPKEVDILFVFHDHTASDSPFWSELKDSYVHKLHQQGTALVQTIGVNELNGRTGLSKDYPDTPEGNKALAAAIVKAFVTDRGVDGLDIAIEHEFTNKRTPEEDARALNVFKEIAQLIGKNGSDKSKLLIMDTTLSVENNPIFKGIAEDLDYLLRQYYGSQGGEAEVDTINSDWNQYQNYIDASQFMIGFSFFEESASKGNLWFDVNEYDPNNPEKGKDIEGTRAKKYAEWQPSTGGLKAGIFSYAIDRDGVAHVPSTYKNRTSTNLQRHEVDNISHTDYTVSRKLKTLMTEDKRYDVIDQKDIPDPALREQIIQQVGQYKGDLERYNKTLVLTGDKIQNLKGLEKLSKLQKLELRQLSNVKEITPELLPESMKKDAELVMVGMTGLEKLNLSGLNRQTLDGIDVNSITHLTSFDISHNSLDLSEKSEDRKLLMTLMEQVSNHQKITVKNTAFENQKPKGYYPQTYDTKEGHYDVDNAEHDILTDFVFGTVTKRNTFIGDEEAFAIYKEGAVDGRQYVSKDYTYEAFRKDYKGYKVHLTASNLGETVTSKVTATTDETYLVDVSDGEKVVHHMKLNIGSGAIMMENLAKGAKVIGTSGDFEQAKKIFDGEKSDRFFTWGQTNWIAFDLGEINLAKEWRLFNAETNTEIKTDSSLNVAKGRLQILKDTTIDLEKMDIKNRKEYLSNDENWTDVAQMDDAKAIFNSKLSNVLSRYWRFCVDGGASSYYPQYTELQILGQRLSNDVANTLKD | – | – | – | – | > 680 µM | – | – | – | – | 121 ± 17.1 µM | 0.17 ± 0.0395 s⁻¹ | – | more than 20 times

Reference: patent US10836815B2, “Generation and comparative kinetic analysis of new glycosynthase mutants from Streptococcus pyogenes endoglycosidases for antibody glycoengineering” (UNIVERSITY OF MARYLAND, COLLEGE PARK, priority 2017, dated 2020)
